Laboratory results reported in the supplement of paper PMC6757056.
± gives the standard deviation of the averaged measurements.

B1: library; a variant is named by its letters at N, in order (parent)
chain: GCUGUCACCGAGAAACUGUGAAGUAUAUCUUAAACCUGGGCACUUAAAAGAUAUAUGGAGUUAGUAGUGCAACCUGCUCGGUCUGAUGAGUCCNNNNNNGGACGAAACAGC

Columns and labels:
cyclic di-GMP [1] = variants of: B1; experiment: normalized RNA/DNA level without ligand (relative to sTRSVctl = 100) (log10 (% of sTRSVctl)); HEK293T; ligand: cyclic di-GMP (c-di-GMP-II aptamer); higher = less ribozyme self-cleavage, higher mRNA level; settings: reporter: mCherry (pCS4076), ligand present: no
Method in brief: (§1)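 Total RNA, extracted with EDTA 72 h after HEK293T cells were transfected with 4 µg per 6-well well of reporter-linked ribozyme switch library plasmids, was reverse-transcribed, amplified, barcoded and sequenced. Ligand, if used, was added 1 h before transfection. RNA level was derived from RNA reads divided by DNA reads and normalized to a spiked-in non-cleaving sequence or to the top sequences. This was multiplied by 100 and log10-transformed, with the top set of 25 sequences and a ≥100 DNA read minimum.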

cyclic di-GMP [2] = variants of: B1; experiment: normalized RNA/DNA level with ligand (relative to sTRSVctl = 100) (log10 (% of sTRSVctl)); HEK293T; ligand: cyclic di-GMP (c-di-GMP-II aptamer); ligand concentration (+) RNA-Seq: 1 mM; higher = less ribozyme self-cleavage, higher mRNA level; settings: reporter: mCherry (pCS4076), ligand present: yes
Method in brief: as §1

Variant	normalized RNA/DNA level without ligand (log10) (cyclic di-GMP [1])	normalized RNA/DNA level with ligand (log10) (cyclic di-GMP [2])
UACAUU	1.59 ± 0.034	1.78 ± 0.09
GAGGUC	1.68 ± 0.042	1.82 ± 0.11
UGCCAA	1.689 ± 0.0043	1.83 ± 0.12
ACUGCG	1.73 ± 0.069	1.83 ± 0.069
ACAGGC	1.5 ± 0.065	1.68 ± 0.11
CCCCGA	1.6835 ± 0.00018	1.84 ± 0.13
GAUAAC	1.675 ± 0.0073	1.85 ± 0.1
GUGGGC	1.44 ± 0.058	1.68 ± 0.13
UAGCGC	1.76 ± 0.019	1.88 ± 0.036
GUUUCA	1.648 ± 0.0058	1.79 ± 0.12
AUAUGA	1.43 ± 0.066	1.63 ± 0.071
CGACCU	1.54 ± 0.028	1.71 ± 0.09
AUUUAG	1.63 ± 0.065	1.77 ± 0.077
UGUAUG	1.75 ± 0.045	1.9 ± 0.13
CUUGUC	1.78 ± 0.048	1.89 ± 0.12
CGAGGG	1.617 ± 0.014	1.76 ± 0.036
AACUCU	1.73 ± 0.06	1.88 ± 0.12
GGCUGC	1.7019 ± 0.0016	1.83 ± 0.11
GUUGGU	1.611 ± 0.011	1.77 ± 0.1
GGUCAU	1.56 ± 0.055	1.83 ± 0.081
GCCCGC	1.76 ± 0.04	1.86 ± 0.15
CCGAAU	1.48 ± 0.13	1.68 ± 0.11
UUCUAG	1.75 ± 0.047	1.84 ± 0.15
UUGGCG	1.85 ± 0.022	1.94 ± 0.11
CCACGA	1.6 ± 0.04	1.74 ± 0.086
CCUAAC	1.66 ± 0.033	1.8 ± 0.097

Variant	normalized RNA/DNA level without ligand (log10) (cyclic di-GMP [1])	normalized RNA/DNA level with ligand (log10) (cyclic di-GMP [2])
GUCCCA	1.772 ± 0.0084	1.87 ± 0.075
GCGAAC	1.28 ± 0.15	1.54 ± 0.052
UCCGCG	1.774 ± 0.0088	1.89 ± 0.083
CCUCUA	1.427 ± 0.0066	1.68 ± 0.13
ACUUAU	1.55 ± 0.042	1.73 ± 0.074
CAUGGC	1.715 ± 0.005	1.84 ± 0.09
CCCAGU	1.736 ± 0.015	1.86 ± 0.068
GCCGGG	1.86 ± 0.089	1.93 ± 0.13
CAACAC	1.58 ± 0.028	1.77 ± 0.12
GACGUC	1.671 ± 0.014	1.87 ± 0.1
CGUACG	1.777 ± 0.013	1.857 ± 0.017
ACCAUU	1.56 ± 0.032	1.79 ± 0.1
CAGAAU	1.38 ± 0.13	1.53 ± 0.12
AAUACU	1.71 ± 0.023	1.84 ± 0.085
GGUUGC	1.7 ± 0.018	1.87 ± 0.021
GAUACC	1.758 ± 0.0066	1.89 ± 0.066
UCAACA	1.708 ± 0.0058	1.81 ± 0.096
GGGAAA	1.46 ± 0.14	1.544 ± 0.007
UUAUUC	1.76 ± 0.073	1.88 ± 0.14
UUCUUU	1.74 ± 0.024	1.9 ± 0.081
CGAUCG	1.8 ± 0.04	1.87 ± 0.1
UAGUGC	1.69 ± 0.024	1.82 ± 0.13
GAAGGC	1.62 ± 0.023	1.79 ± 0.13
CACAAC	1.59 ± 0.028	1.77 ± 0.085
GCGCCC	1.79 ± 0.025	1.89 ± 0.038
UGUAAC	1.718 ± 0.0028	1.84 ± 0.12

Variant	normalized RNA/DNA level without ligand (log10) (cyclic di-GMP [1])	normalized RNA/DNA level with ligand (log10) (cyclic di-GMP [2])
GCCUGC	1.78 ± 0.032	1.86 ± 0.097
CUGUAA	1.26 ± 0.086	1.51 ± 0.1
UCGGUG	1.68 ± 0.049	1.78 ± 0.13
GGUCCA	1.777 ± 0.015	1.95 ± 0.022
AUCCCC	1.8 ± 0.048	1.92 ± 0.099
GGGCAG	1.823 ± 0.015	1.89 ± 0.045
AAUUGC	1.696 ± 0.016	1.83 ± 0.091
GCCAAA	1.49 ± 0.1	1.68 ± 0.08
CCUGUC	1.69 ± 0.019	1.87 ± 0.089
UUGAAU	1.661 ± 0.0028	1.83 ± 0.095
GUCGAU	1.59 ± 0.11	1.71 ± 0.096
ACUCAC	1.699 ± 0.0095	1.81 ± 0.092
CAUGUA	1.44 ± 0.081	1.65 ± 0.072
AGGACU	1.66 ± 0.014	1.82 ± 0.088
CUUCGG	1.82 ± 0.028	1.886 ± 0.0058
UAACUG	1.73 ± 0.017	1.84 ± 0.13
AGAAGU	1.57 ± 0.022	1.75 ± 0.16
CCCUAU	1.62 ± 0.048	1.8 ± 0.069
UCACCU	1.7414 ± 0.00048	1.89 ± 0.12
UGUGCG	1.804 ± 0.0083	1.93 ± 0.059
UUAGUA	1.609 ± 0.0054	1.79 ± 0.13
GUCUCG	1.867 ± 0.0092	1.88 ± 0.073
GACGGU	1.633 ± 0.0071	1.8 ± 0.11
GGCGCC	1.79 ± 0.041	1.84 ± 0.083
CAAGUG	1.68 ± 0.045	1.84 ± 0.12
UGAGAG	1.6931 ± 0.00099	1.87 ± 0.098

Variant	normalized RNA/DNA level without ligand (log10) (cyclic di-GMP [1])	normalized RNA/DNA level with ligand (log10) (cyclic di-GMP [2])
CGCAUC	1.66 ± 0.037	1.83 ± 0.11
AUUUUA	1.62 ± 0.032	1.8 ± 0.13
UUUUGC	1.76 ± 0.045	1.85 ± 0.11
UCGCCG	1.81 ± 0.091	1.95 ± 0.14
ACAUCG	1.51 ± 0.1	1.71 ± 0.16
CGAACG	1.75 ± 0.056	1.9 ± 0.089
UUAGGU	1.7 ± 0.042	1.86 ± 0.1
CACUGA	1.65 ± 0.039	1.77 ± 0.1
GACGCG	1.81 ± 0.055	1.88 ± 0.045
CGACAU	1.43 ± 0.16	1.63 ± 0.12
GUUCGG	1.71 ± 0.018	1.84 ± 0.12
GCUCAA	1.6 ± 0.023	1.79 ± 0.072
UUCGUC	1.76 ± 0.037	1.88 ± 0.058
UGAACA	1.75 ± 0.037	1.87 ± 0.074
CAGGCU	1.8 ± 0.012	1.9 ± 0.11
ACCCGU	1.73 ± 0.023	1.84 ± 0.08
UCGACU	1.6114 ± 7.1e-07	1.82 ± 0.12
UAUUAG	1.73 ± 0.042	1.87 ± 0.068
GAUUCG	1.7482 ± 0.0012	1.88 ± 0.06
GCCACA	1.654 ± 0.016	1.81 ± 0.089
GAUGUU	1.62 ± 0.037	1.78 ± 0.086
GUAGGU	1.6 ± 0.028	1.8 ± 0.1
GUUUAG	1.59 ± 0.041	1.78 ± 0.091
UUUCCC	1.83 ± 0.07	1.94 ± 0.13
UGUAAG	1.73 ± 0.022	1.84 ± 0.089
CACCAC	1.675 ± 0.0098	1.85 ± 0.096

Variant	normalized RNA/DNA level without ligand (log10) (cyclic di-GMP [1])	normalized RNA/DNA level with ligand (log10) (cyclic di-GMP [2])
CCGCGC	1.74 ± 0.026	1.87 ± 0.098
UGUUCG	1.8 ± 0.023	1.89 ± 0.12
ACUCCG	1.746 ± 0.0086	1.83 ± 0.15
AUGUCC	1.74 ± 0.02	1.86 ± 0.15
ACCCAA	1.56 ± 0.03	1.74 ± 0.15
GAGUCA	1.82 ± 0.021	1.9 ± 0.085
CAUCGC	1.783 ± 0.015	1.87 ± 0.043
CGGUUG	1.68 ± 0.14	1.812 ± 0.013
CUUUUU	1.611 ± 0.013	1.79 ± 0.11
GCAGGA	1.4 ± 0.075	1.56 ± 0.091
UCUUUA	1.65 ± 0.031	1.84 ± 0.11
GGCACG	1.76 ± 0.026	1.88 ± 0.039
GUCAUU	1.66 ± 0.061	1.81 ± 0.12
GACUGU	1.654 ± 0.0065	1.8 ± 0.15
AGGGGA	1.53 ± 0.1	1.59 ± 0.054
CCUCGA	1.71 ± 0.058	1.84 ± 0.093
AUUCGU	1.79 ± 0.024	1.86 ± 0.12
GCCCAG	1.9 ± 0.036	1.97 ± 0.095
CCGUAG	1.32 ± 0.11	1.55 ± 0.14
ACUUCC	1.776 ± 0.013	1.89 ± 0.08
AAAACA	1.51 ± 0.072	1.7 ± 0.074
GUCUGC	1.732 ± 0.012	1.87 ± 0.12
CGUACC	1.74 ± 0.039	1.89 ± 0.09
CGGCGU	1.726 ± 0.013	1.91 ± 0.16
